Laboratory results as given in patent publication US20230201322A1 (ENTEROME S A, published 2023).

What follows are binders tested against T1, HLA-A*0201 molecule expressed on the human tumoral cell T2 (human) (assay: T2 cell HLA-A2 FACS (BB7.2-PE), peptide 1 µM).
T1 construct: Empty or peptide-receptive class I molecule on T2 cells; surface level read with anti-HLA-A2 antibody BB7.2-PE after incubation with the peptide; also called HLA-A2
Procedure: (§1) T2 cells (2·10⁵ cells per well) are incubated with decreasing concentrations of peptides from 100 μM to 0.1 μM in a AIMV medium supplemented with 100 ng/μl of human β2m at 37° C. for 16 hours. Cells are then washed two times and marked with the anti-HLA-A2 antibody coupled to PE (clone BB7.2, BD Pharmagen).
(§2) The relative affinity is then determined as follows: […]

Going from ILLGVVFGI [antigenic peptide ERBB2-3B4 (ILLGVVFGI)] to KVVEFLAML [reference human peptide derived from MAGE C1, MAGE C1H (KVVEFLAML)], the “HLA-A2 labelling as % of reference peptide HIV pol 589-597 at 100 µM” value (“HLA-A2 labelling as %” for short) falls from 26.1% to 7.12%.

First: RLLEETDLV [antigenic peptide ERBB2-1B (RLLEETDLV)]
Second: MLAVFLPLV [antigenic peptide STEAP-B1 (MLAVFLPLV)]
The “HLA-A2 labelling as %” value of the first is lower: 2.86% for the first, 8.92% for the second.

Going from ITSDVPFSV [antigenic peptide PMEL-B (ITSDVPFSV)] to YLAVFLPIV [antigenic peptide STEAP-B2 (YLAVFLPIV)], the “HLA-A2 labelling as %” value rises from 3.62% to 4.87%.

Compared with SLPPDVQQV [antigenic peptide MMP2-B (SLPPDVQQV)], GLPPDVQRV [reference human peptide derived from MMP2, MMP2-H (GLPPDVQRV)] is lower in “HLA-A2 labelling as %” value: 24.6% for the first, 17.8% for the second.

Going from MIAVFLPIV [reference human peptide derived from STEAP, STEAP-H (MIAVFLPIV)] to VMLGVVFGV [antigenic peptide ERBB2-3B1 (VMLGVVFGV)], the “HLA-A2 labelling as %” value falls from -4.47% to -12.9%.

Going from VMLGVVFGI [antigenic peptide ERBB2-3B3 (VMLGVVFGI)] to KLVEWLAML [antigenic peptide MAGE C1B (KLVEWLAML)], the “HLA-A2 labelling as %” value rises from -10.6% to 3.97%.

The binders below were run against T1, HLA-A*0201 molecule expressed on the … (assay: T2 cell HLA-A2 FACS (BB7.2-PE), peptide titration).
Procedure: as §1, §2

Going from ILLGVVFGI [antigenic peptide ERBB2-3B4 (ILLGVVFGI)] to KVVEFLAML [reference human peptide derived from MAGE C1, MAGE C1H (KVVEFLAML)], the “Conc. inducing 20% of HLA-A2 expression” value rises from 0.9 µM to 60.1 µM (67-fold).

Compared with RLLEETDLV [antigenic peptide ERBB2-1B (RLLEETDLV)], MLAVFLPLV [antigenic peptide STEAP-B1 (MLAVFLPLV)] is 1.9-fold lower in “Conc. inducing 20% of HLA-A2 expression” value: 9.5 µM for the first, 5 µM for the second.

First: ITSDVPFSV [antigenic peptide PMEL-B (ITSDVPFSV)]
Second: YLAVFLPIV [antigenic peptide STEAP-B2 (YLAVFLPIV)]
The “Conc. inducing 20% of HLA-A2 expression” value of the first is 2.2-fold higher: 18.2 µM for the first, 8.22 µM for the second.

Compared with SLPPDVQQV [antigenic peptide MMP2-B (SLPPDVQQV)], GLPPDVQRV [reference human peptide derived from MMP2, MMP2-H (GLPPDVQRV)] is 2-fold higher in “Conc. inducing 20% of HLA-A2 expression” value: 0.88 µM for the first, 1.76 µM for the second.

First: MIAVFLPIV [reference human peptide derived from STEAP, STEAP-H (MIAVFLPIV)]
Second: VMLGVVFGV [antigenic peptide ERBB2-3B1 (VMLGVVFGV)]
The “Conc. inducing 20% of HLA-A2 expression” value of the first is 3.7-fold higher: 33.5 µM for the first, 9 µM for the second.

Compared with VMLGVVFGI [antigenic peptide ERBB2-3B3 (VMLGVVFGI)], KLVEWLAML [antigenic peptide MAGE C1B (KLVEWLAML)] is 2.5-fold higher in “Conc. inducing 20% of HLA-A2 expression” value: 12.5 µM for the first, 30.9 µM for the second.

These binders were tested against T1, HLA-A*0201 molecule expressed on the … (assay: T2 cell HLA-A2 FACS (BB7.2-PE); ratio of 20% concentrations against HIV pol 589-597).
Procedure: as §1, §2

First: ILLGVVFGI [antigenic peptide ERBB2-3B4 (ILLGVVFGI)]
Second: KVVEFLAML [reference human peptide derived from MAGE C1, MAGE C1H (KVVEFLAML)]
The Relative affinity of the first is lower: 0.03 for the first, 1.94 for the second.

Going from RLLEETDLV [antigenic peptide ERBB2-1B (RLLEETDLV)] to MLAVFLPLV [antigenic peptide STEAP-B1 (MLAVFLPLV)], the Relative affinity falls from 0.26 to 0.16.

Compared with ITSDVPFSV [antigenic peptide PMEL-B (ITSDVPFSV)], YLAVFLPIV [antigenic peptide STEAP-B2 (YLAVFLPIV)] is lower in Relative affinity: 0.59 for the first, 0.27 for the second.

Going from SLPPDVQQV [antigenic peptide MMP2-B (SLPPDVQQV)] to GLPPDVQRV [reference human peptide derived from MMP2, MMP2-H (GLPPDVQRV)], the Relative affinity rises from 0.03 to 0.06.

Going from MIAVFLPIV [reference human peptide derived from STEAP, STEAP-H (MIAVFLPIV)] to VMLGVVFGV [antigenic peptide ERBB2-3B1 (VMLGVVFGV)], the Relative affinity falls from 1.08 to 0.25.

Compared with VMLGVVFGI [antigenic peptide ERBB2-3B3 (VMLGVVFGI)], KLVEWLAML [antigenic peptide MAGE C1B (KLVEWLAML)] is lower in Relative affinity: 0.35 for the first, 0.31 for the second.

These binders were tested against T1, HLA-A*0201 molecule expressed on the … (assay: T2 cell HLA-A2 FACS (BB7.2-PE), peptide 100 µM).
Procedure: as §1, §2

Compared with ILLGVVFGI [antigenic peptide ERBB2-3B4 (ILLGVVFGI)], KVVEFLAML [reference human peptide derived from MAGE C1, MAGE C1H (KVVEFLAML)] is lower in “HLA-A2 labelling as %” value: 265% for the first, 32.3% for the second.

Going from RLLEETDLV [antigenic peptide ERBB2-1B (RLLEETDLV)] to MLAVFLPLV [antigenic peptide STEAP-B1 (MLAVFLPLV)], the “HLA-A2 labelling as %” value falls from 297% to 132%.

First: ITSDVPFSV [antigenic peptide PMEL-B (ITSDVPFSV)]
Second: YLAVFLPIV [antigenic peptide STEAP-B2 (YLAVFLPIV)]
The “HLA-A2 labelling as %” value of the first is lower: 74.8% for the first, 97.9% for the second.

Compared with SLPPDVQQV [antigenic peptide MMP2-B (SLPPDVQQV)], GLPPDVQRV [reference human peptide derived from MMP2, MMP2-H (GLPPDVQRV)] is higher in “HLA-A2 labelling as %” value: 131% for the first, 154% for the second.

First: MIAVFLPIV [reference human peptide derived from STEAP, STEAP-H (MIAVFLPIV)]
Second: VMLGVVFGV [antigenic peptide ERBB2-3B1 (VMLGVVFGV)]
The “HLA-A2 labelling as %” value of the first is lower: 102% for the first, 122% for the second.

Going from VMLGVVFGI [antigenic peptide ERBB2-3B3 (VMLGVVFGI)] to KLVEWLAML [antigenic peptide MAGE C1B (KLVEWLAML)], the “HLA-A2 labelling as %” value falls from 179% to 109%.

What follows are binders tested against T1, HLA-A*0201 molecule expressed on the … (assay: T2 cell HLA-A2 FACS (BB7.2-PE), peptide 10 µM).
Procedure: as §1, §2

First: ILLGVVFGI [antigenic peptide ERBB2-3B4 (ILLGVVFGI)]
Second: KVVEFLAML [reference human peptide derived from MAGE C1, MAGE C1H (KVVEFLAML)]
The “HLA-A2 labelling as %” value of the first is higher: 138% for the first, 7.84% for the second.

Compared with RLLEETDLV [antigenic peptide ERBB2-1B (RLLEETDLV)], MLAVFLPLV [antigenic peptide STEAP-B1 (MLAVFLPLV)] is higher in “HLA-A2 labelling as %” value: 26.4% for the first, 45.1% for the second.

First: ITSDVPFSV [antigenic peptide PMEL-B (ITSDVPFSV)]
Second: YLAVFLPIV [antigenic peptide STEAP-B2 (YLAVFLPIV)]
The “HLA-A2 labelling as %” value of the first is lower: 7.93% for the first, 27.7% for the second.

Compared with SLPPDVQQV [antigenic peptide MMP2-B (SLPPDVQQV)], GLPPDVQRV [reference human peptide derived from MMP2, MMP2-H (GLPPDVQRV)] is lower in “HLA-A2 labelling as %” value: 96% for the first, 66.3% for the second.

First: MIAVFLPIV [reference human peptide derived from STEAP, STEAP-H (MIAVFLPIV)]
Second: VMLGVVFGV [antigenic peptide ERBB2-3B1 (VMLGVVFGV)]
The “HLA-A2 labelling as %” value of the first is lower: 14.9% for the first, 26.7% for the second.

Going from VMLGVVFGI [antigenic peptide ERBB2-3B3 (VMLGVVFGI)] to KLVEWLAML [antigenic peptide MAGE C1B (KLVEWLAML)], the “HLA-A2 labelling as %” value rises from 16.6% to 21.4%.

What follows are binders tested against T1, HLA-A*0201 molecule expressed on the … (assay: T2 cell HLA-A2 FACS (BB7.2-PE), peptide 0.1 µM).
Procedure: as §1, §2

Compared with ILLGVVFGI [antigenic peptide ERBB2-3B4 (ILLGVVFGI)], KVVEFLAML [reference human peptide derived from MAGE C1, MAGE C1H (KVVEFLAML)] is higher in “HLA-A2 labelling as %” value: -11.6% for the first, 5.77% for the second.

Compared with RLLEETDLV [antigenic peptide ERBB2-1B (RLLEETDLV)], MLAVFLPLV [antigenic peptide STEAP-B1 (MLAVFLPLV)] is higher in “HLA-A2 labelling as %” value: -1.18% for the first, 6.67% for the second.

Compared with ITSDVPFSV [antigenic peptide PMEL-B (ITSDVPFSV)], YLAVFLPIV [antigenic peptide STEAP-B2 (YLAVFLPIV)] is lower in “HLA-A2 labelling as %” value: 4.69% for the first, -0.34% for the second.

First: SLPPDVQQV [antigenic peptide MMP2-B (SLPPDVQQV)]
Second: GLPPDVQRV [reference human peptide derived from MMP2, MMP2-H (GLPPDVQRV)]
The “HLA-A2 labelling as %” value of the first is lower: 4.69% for the first, 5.41% for the second.

Going from MIAVFLPIV [reference human peptide derived from STEAP, STEAP-H (MIAVFLPIV)] to VMLGVVFGV [antigenic peptide ERBB2-3B1 (VMLGVVFGV)], the “HLA-A2 labelling as %” value falls from 0.11% to -16%.

First: VMLGVVFGI [antigenic peptide ERBB2-3B3 (VMLGVVFGI)]
Second: KLVEWLAML [antigenic peptide MAGE C1B (KLVEWLAML)]
The “HLA-A2 labelling as %” value of the first is lower: -16.3% for the first, 2.45% for the second.
